Results reported in PMC4915977 (Current biology : CB, 2016).
Blank lines part the entries; values can stand above or below the molecule they belong to.

Experiments:
[1] = molecular target: Mst1 SARAH domain with a C-terminal Cys, AEDANS-labelled (UniProt Q13043); experiment: FRET or BRET
[2] = molecular target: Mst2 SARAH domain with a C-terminal Cys, AEDANS-labelled (UniProt Q13188); experiment: FRET or BRET
[3] = molecular target: T1, HA-tagged Mst2, full-length (UniProt Q13188 1-491); experiment: co-IP
T1 sequence (looked up): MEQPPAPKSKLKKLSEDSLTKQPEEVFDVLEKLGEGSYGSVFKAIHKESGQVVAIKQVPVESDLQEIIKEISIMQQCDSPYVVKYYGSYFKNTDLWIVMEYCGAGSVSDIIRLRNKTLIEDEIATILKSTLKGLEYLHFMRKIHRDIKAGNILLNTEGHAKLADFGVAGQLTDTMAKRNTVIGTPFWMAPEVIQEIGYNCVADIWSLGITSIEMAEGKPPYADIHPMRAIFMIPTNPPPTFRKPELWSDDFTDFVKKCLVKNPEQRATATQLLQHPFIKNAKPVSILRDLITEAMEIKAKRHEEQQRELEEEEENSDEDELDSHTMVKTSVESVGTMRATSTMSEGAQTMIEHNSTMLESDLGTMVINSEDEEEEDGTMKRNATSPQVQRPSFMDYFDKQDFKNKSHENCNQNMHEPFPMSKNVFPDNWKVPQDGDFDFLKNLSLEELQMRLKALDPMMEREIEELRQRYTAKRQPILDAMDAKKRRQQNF

Kd [1]: 6.5 µM
Molecule: Mst1 SARAH domain with a C-terminal Cys, AEDANS-labelled (from UniProt Q13043 433-480) (domain or fragment)

Kd [2]: 0.72 µM
Molecule: Mst1 SARAH domain, unlabeled (from UniProt Q13043 433-480) (domain or fragment)

Kd [2]: 4.3 µM
Molecule: Mst2-LW SARAH domain, unlabeled (from UniProt Q13188 437-484) (domain or fragment)

level of heterodimers relative to homodimers [3]: ~60%
B1: Myc-tagged Mst1, full-length (1-487) (natural protein, UniProt Q13043 1-487, looked up)
chain: METVQLRNPPRRQLKKLDEDSLTKQPEEVFDVLEKLGEGSYGSVYKAIHKETGQIVAIKQVPVESDLQEIIKEISIMQQCDSPHVVKYYGSYFKNTDLWIVMEYCGAGSVSDIIRLRNKTLTEDEIATILQSTLKGLEYLHFMRKIHRDIKAGNILLNTEGHAKLADFGVAGQLTDTMAKRNTVIGTPFWMAPEVIQEIGYNCVADIWSLGITAIEMAEGKPPYADIHPMRAIFMIPTNPPPTFRKPELWSDNFTDFVKQCLVKSPEQRATATQLLQHPFVRSAKGVSILRDLINEAMDVKLKRQESQQREVDQDDEENSEEDEMDSGTMVRAVGDEMGTVRVASTMTDGANTMIEHDDTLPSQLGTMVINAEDEEEEGTMKRRDETMQPAKPSFLEYFEQKEKENQINSFGKSVPGPLKNSSDWKIPQDGDYEFLKSWTVEDLQKRLLALDPMMEQEIEEIRQKYQSKRQPILDAIEAKKRRQQNF
